Assay: yeast display, Sf9 membrane polyspecificity reagent, FACS + sequencing; frameworks hold sequencing errors
Summary of the method: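 Polyreactivity labels are assigned by the sorting gate from which each nanobody was recovered. The gates were low and high (top ~1%), set on anti-HA fluorescence for expression and streptavidin fluorescence for reagent binding. Before sorting, galactose-induced (36–48 hours) yeast display cells were stained for 1 hour at 4 °C with 10% biotinylated, detergent-solubilized Sf9 membrane reagent.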

| Sequence | polyreactivity (PSR sort gate) |
| --- | --- |
| QVQLVESGGGLVQAGGSLRLSCAASGSTFSTNAMGWYRQAPGKERELVASITRSGGSTYYADSVKGRFTISRDNAKNTVYLQMNSLKPEDTAVYYCNADGYYDYDYGYWGQGTQVTVSS | low polyreactivity |
| QVQLVESGGGLVQAGGSLRLSCAASGSTFSTYAMGWDRQAPGKERELVAAIRWSGGSTYYADSVKGRFTISRDNAKNTVYLQMNSLKPEDTAVYNCNAGASYFLVISQSRRDYWGQGTEVTVSS | low polyreactivity |
| QVQLVESGGGLVQAGGSLRLSCAASGSTFSTYAMGWYRPAPGKERELVAAISRRGTNTYYADSVKGRFTISRDNAKNTVYLQMNSLKPEDTAVYYCAARSRSLRVYNRVYEVNEMDYWGQGTQVTVSS | low polyreactivity |
| QVQLVESGGGLVQAGGSLRLSCAASGSTFSTYAMGWYRQAPGKERELVARITRGGSTNYADSVKGRFTISRDNAKNTVYLQMNSLKPEDTAVYYCAAGIRSGRKYDYWGQGTQVTVSS | low polyreactivity |
| QVQLVESGGGLVQAGGSLRLSCAASGSTFSTYAMGWYRQAPGKERELVASISGRGSSTDYADSVKGRFTISRDNAKNTVYLQMNSLKPEDTAVYYCNRRGYRTSTTYRRYNYWGQGTQVTVSS | high polyreactivity |
| QVQLVESGGGLVQAGGSLRLSCAASGSTFSTYTMGWYRQAPGKERELVASISGRGGRTYYADSVKGRFTISRDNAKNTVYLQMNSMKPEDTAVYYCAARYWTLPWYQRGDYWGQGTQVTVSS | high polyreactivity |
| QVQLVESGGGLVQAGGSLRLSCAASGSTFSVNAMGWYRQAPGKEREFVAAITYSGGSTYYADSVKGRFTISRDNAKNTVYLQMNSLKPEDTAVYYCNRDTRYYWKRYGYWGQGTQVTVSS | high polyreactivity |
| QVQLVESGGGLVQAGGSLRLSCAASGSTFSVYGMGWYRQAPGKERELVAINIIGGSTYYADSVKGRFTISRDNAKNTVYLQMNSLKPEDTAVYYCAADSFPSEFDYWGQGTQVTVSS | low polyreactivity |
| QVQLVESGGGLVQAGGSLRLSCAASGSTFSVYTMGWYRQAPGKERELVAAITRNGGSTSYADSVKGRFTISRDNAKNTVYLQMNSLKPEDTAVYYCAASYSYRGYLYGYWGQGTQVTVSS | high polyreactivity |
| QVQLVESGGGLVQAGGSLRLSCAASGSTFSWYAMGWYRQAPGKERELVASISFSGGDTSYADSVKGRFTISRDNAKNTVYLQMHSLKPEDSAVYYCGKEYKYETDTKFDYWGQGTQVTVSS | low polyreactivity |
| QVQLVESGGGLVQAGGSLRLSCAASGSTFSWYTMGWYRQAPGKERELVAAISWSGGRTYYADSVKGRFTISRDNAKNTVYLQMNSLKPEDTAVYYCAAYDYWYSLGVYQFYYWGQGTQVTVSS | low polyreactivity |
| QVQLVESGGGLVQAGGSLRLSCAASGSTFSWYTMGWYRQAPGKERELVAAITRDGSTYYADSVKGRFTISRDNAKNTVYLHMNSLKPEDTAVYYCAADLSYWRGGHSRNYWGQGTQVTVSS | low polyreactivity |
| QVQLVESGGGLVQAGGSLRLSCAASGSTFSWYVMGWYRQAPGKERELVAAISYRGGRTYYADSVKGRFTISRDNAKNTVYLQMNSLKPEDTAVYYCAARGVVDAGRTNRPYDYWGQGTQVTVSS | low polyreactivity |
| QVQLVESGGGLVQAGGSLRLSCAASGSTFSYNAMGWYRQAPGKERELVAAISWRGGRTYYADSVKGRFTISRDNAKNTVYLQMYSLKPEDTAVYYCAAAYAAYSRYRYDYWGQGTQVTVSS | high polyreactivity |
| QVQLVESGGGLVQAGGSLRLSCAASGSTFSYNAMGWYRQAPGKERELVAAITSSGSSTYYADSVKGRFTISRYNAKNTVYLQMNSLKPEDTAVYYCAATLYNTEDDYWGQGTQVTVSS | low polyreactivity |
| QVQLVESGGGLVQAGGSLRLSCAASGSTFSYNAMGWYRQAPGKERELVATITYSGGTTYYADSVKGRFTISRDNAKNTVYLQMNSLKPEDTAVYYCAALYSFSYLSTSFVVEDWYYYWGQGTQVTVSS | high polyreactivity |
| QVQLVESGGGLVQAGGSLRLSCAASGSTFSYNAMGWYRQAPGKVRELVASINSRGGTTYYADSVKGRFTISRDNAKNTVYLQMNSRKPEDTAVYYCATDVYRLGEYDYWGQGTQVTVSS | low polyreactivity |
| QVQLVESGGGLVQAGGSLRLSCAASGSTFSYNDMGWYRQAPGKERELVAAITDSDGNTDYADSVKGRFTISRDKAKNTVYLQMNSLKPEDTAVYYCAAYYYGSVAQDREYWGQGTQVTVSS | high polyreactivity |
| QVQLVESGGGLVQAGGSLRLSCAASGSTFSYYAMGWYRQAPGKEMELVAAIRSGGSTYYADSVKGRFTISRDNAKNTVYLQMNSLKPEDTAVYYCNADYIRASTLKYGTIYYWHYDYWGQGTQVTVSS | high polyreactivity |
| QVQLVESGGGLVQAGGSLRLSCAASGSTFSYYAMGWYRQAPGKERDLVASIDGSTGSTYYADSVKGRFTISRDNAKTTVYLQMNILKPEDTAVYYFNAESLDYYDNAYEYWGQGTQVTVSS | low polyreactivity |
| QVQLVESGGGLVQAGGSLRLSCAASGSTFSYYAMGWYRQAPGKERELVAAITKRGGSTYYADSVKGRFTISRDNAKNTVYLQMNSLKPEVTAVYYCAAKRKSYYSYNFDYWGQGTQVTVSS | high polyreactivity |
| QVQLVESGGGLVQAGGSLRLSCAASGSTFSYYAMGWYRQAPGKERELVARISWRGGSTYYADSVKGRFTISRDNAKNTVYLQMNSLKPEDTAVYYCAARRSGTYYGTYKSNGRNYWGQGTQVTVSS | high polyreactivity |

| Sequence | polyreactivity (PSR sort gate) |
| --- | --- |
| QVQLVESGGGLVQAGGSLRLSCAASGSTFSYYAMGWYRQAPGKEWELVAAIRSGGSTYYADSVKGRFTISRDNAKNTVYLQMNSLKPEDTAVYYCNADYIRASTLNYGTIYYWHYDYWGQGTQVTVSS | high polyreactivity |
| QVQLVESGGGLVQAGGSLRLSCAASGSTFSYYDMGWYRQAPGKERELVAAISWNGGTTYYADSVKGRFTISRDNAKNTVYLQMNSLKPEDTAVYYCAATWDFYWAPYDSWGQGTQVTVSS | low polyreactivity |
| QVQLVESGGGLVQAGGSLRLSCAASGSTFSYYGMGWYRPAPGKERELVAAIDYSGDSTYYADSVKARFTISRDNAKNTVYLQMNSLKPEDTAVYYCAADDYPWNRYEYWGQGTQVTVSS | low polyreactivity |
| QVQLVESGGGLVQAGGSLRLSCAASGSTFSYYPMGWYRQAPGKERELVATISKRGGTTSYADSVKGRFTISRDNAKNTVYLQMISLKPEDTAVYYCAARYSKVHYAYDYWGQGTQVTVSS | high polyreactivity |
| QVQLVESGGGLVQAGGSLRLSCAASGSTFTANAMGWYRQAPGTERELVAAISRSGGSTYYADSVKGRFTISRDNAKYTVYLQLNSLKPEDTAVYYCAAECPLFSPPDGEDYWGQGTLVTVSS | low polyreactivity |
| QVQLVESGGGLVQAGGSLRLSCAASGSTFTAYAMGWYRHAPGKERELVAGITGNGGSTRYADSVKGRFTISRDNAKNTVYVQMNSLKPEDTAFYYCAARWTRQRYRTSYYSWGQGTQVTVSS | high polyreactivity |
| QVQLVESGGGLVQAGGSLRLSCAASGSTFTAYVMGWYRQAPGKERELVAAISSSGGRTYYADSVKGRFTISRDNAKNTVYLQMNSLKPEDTAVYYCAARSGPLAYDYWGQGTQVTVSS | high polyreactivity |
| QVQLVESGGGLVQAGGSLRLSCAASGSTFTDNAMGWYRQAPGKETELVAAINGSGDITYYADSVKGRFTISRDYAKNTVYLQMKSLKPEDTAVYYCATRTQYKTWYGAYYYWGQGTQVTVSS | low polyreactivity |
| QVQLVESGGGLVQAGGSLRLSCAASGSTFTDYAMGWYRQAPGKERELVAAIRFSGGSTYYADSVKGRFTISRDNAKNTVYLQMNSLKPEDTAVYYCAAGGYPWLDSWGQGTQVTVSS | low polyreactivity |
| QVQLVESGGGLVQAGGSLRLSCAASGSTFTDYDMGWYRPAPGKERELVAAISSGGSTYYADSVKGRFTISRDNAKNTVYLQMNSLKPEDTAVYYCAAVLGVWGGVGSEGDYWGQGTQVTVSS | low polyreactivity |
| QVQLVESGGGLVQAGGSLRLSCAASGSTFTFNAMGWYRQAPGKERELVAAITTSAGSTYYADSVKGRFTISRDNAKNTVYLQMNSLKPEDTAVYYCAARYVPPWGRRYYYWGQGTQVTVSS | high polyreactivity |
| QVQLVESGGGLVQAGGSLRLSCAASGSTFTFYFMGWYRQAPGKERELVAAITASGGSTYYADSVKGRFTISRDNAKNTVYLQMNSEKPEDTAVYYCAARPTYYYSRTYDYWGQGTQVTVSS | low polyreactivity |
| QVQLVESGGGLVQAGGSLRLSCAASGSTFTGNAMGWYRQAPGKERELVASINGSSGSTYYADSVKGRFTISRDNAKNTVYFQMNSLKPEDTAVYYCAKDSFLHFPRVGWVGLEYWGQGTQVTVSS | low polyreactivity |
| QVQLVESGGGLVQAGGSLRLSCAASGSTFTGNAMGWYRQAPGKERELVASIRRIGSPYYADSVKGRFTISRDNAKNTVDLQMISLKPEDTAVFYCAAAVKIRTPYQYGYWGQGTQVTVSS | high polyreactivity |
| QVQLVESGGGLVQAGGSLRLSCAASGSTFTGYAMGWYRPAPGKERELVAAISRSVGRTYYADSVKGRFTISRDNAKNTVYLQMNSLKPEDTAVYYCAADVYLTGSRNYYWGQGTQVTVSS | high polyreactivity |
| QVQLVESGGGLVQAGGSLRLSCAASGSTFTGYAMGWYRQAPGKEREFVATITKRGGRTYYADSVKGRFTISRDNAKNTVYLQMNSLKPEDTAVYYCARDQGKLVVPYDYWGQGTQVTVSS | high polyreactivity |
| QVQLVESGGGLVQAGGSLRLSCAASGSTFTGYAMGWYRQAPGKERELVASISYSGGSTYYADSVKGRFTISRDNAKNTVYLQMNSLKPEDTAVYYCNALQQYALSRYYWGQGTQVTVSS | high polyreactivity |
| QVQLVESGGGLVQAGGSLRLSCAASGSTFTGYAMGWYRQAPGKEREMVAAISSDGITKYADSVKGRFTISRDNAKYTVYLQMNSLKQEDTAVYYCYAPRGSRRSYRRTEYYYWGQGTQVTVSS | high polyreactivity |
| QVQLVESGGGLVQAGGSLRLSCAASGSTFTGYAMGWYRQAPGTERELVATINSGVSTYADSVKGRFTISRDNAKNTVYLQMNSLKPEDTAVYYCAADGLYYYQSGWIDAGYYTNGYWGQGTQVTVSS | low polyreactivity |
| QVQLVESGGGLVQAGGSLRLSCAASGSTFTINVMGWYRQAPGKERELVAAINGGGRTNYADSVKGRFTISRDNAKNTVYLQMNSLKPEDTAVYYCATRYSHNSGFDYWGQGTQVTVSS | low polyreactivity |
| QVQLVESGGGLVQAGGSLRLSCAASGSTFTIYAMGWYRQAPGKEREFVAAIDEDDGSTYYADSVKGRFTISRDNAKKTVYLQMNSLKPEDTAVYYCNADDIWAYAFDYWGQGTQVTVSS | low polyreactivity |
